From article PMC3176816, “Characterization and Regulation of the Osmolyte Betaine Synthesizing Enzymes GSMT and SDMT from Halophilic Methanogen Methanohalophilus portucalensis” (PLoS ONE, 2011)
Blank lines part the entries; values can stand above or below the molecule they belong to.

How the values were obtained:
MpGSMT = target: T1, MpGSMT (Methanohalophilus portucalensis, UniProt F6KV61); test: radiometric acid-washed charcoal methyltransferase assay; format: biochemical
T1 construct: gene gsmt; full length, 263 residues, 29,040 Da calculated (35 kD on SDS-PAGE)
T1 sequence (F6KV61 1-263): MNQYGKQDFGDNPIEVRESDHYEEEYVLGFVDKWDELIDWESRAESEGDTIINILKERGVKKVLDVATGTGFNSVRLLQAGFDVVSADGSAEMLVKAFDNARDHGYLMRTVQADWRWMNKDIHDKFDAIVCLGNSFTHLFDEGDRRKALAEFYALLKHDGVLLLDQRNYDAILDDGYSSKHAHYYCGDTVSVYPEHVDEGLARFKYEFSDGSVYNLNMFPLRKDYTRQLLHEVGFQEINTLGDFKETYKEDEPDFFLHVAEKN
Description: radiometric acid-washed charcoal methyltransferase assay on MpGSMT

MpSDMT = target: T2, MpSDMT (Methanohalophilus portucalensis, UniProt F6KV62); test: as above; format: biochemical; conditions: read-out: I50 AdoHcy
T2 construct: gene SAMN06264941_0526; full length, 278 residues, 30,690 Da calculated (38 kD on SDS-PAGE)
T2 sequence (F6KV62 1-278): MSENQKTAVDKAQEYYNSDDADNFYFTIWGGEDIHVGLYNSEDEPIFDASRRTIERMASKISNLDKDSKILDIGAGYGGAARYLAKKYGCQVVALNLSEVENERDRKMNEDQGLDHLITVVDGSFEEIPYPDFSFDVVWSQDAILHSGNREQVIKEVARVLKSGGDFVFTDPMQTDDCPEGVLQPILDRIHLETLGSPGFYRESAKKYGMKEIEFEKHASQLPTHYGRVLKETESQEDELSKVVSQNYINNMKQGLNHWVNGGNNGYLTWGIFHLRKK
Description: radiometric acid-washed charcoal methyltransferase assay on MpSDMT

purified protein = substrate: C[S+](CC[C@H](N)C(=O)O)C[C@H]1O[C@@H](n2cnc3c(N)ncnc32)[C@H](O)[C@@H]1O; test: purified protein; conditions: TES pH 7.3, 37 °C, labelled compound
[1] = target: the molecule itself; test: AUC; sedimentation velocity, 0.70 mg/ml MpGSMT in 0.1 M TES buffer (pH 7.3) with 0 to 2.0 M KCl, 20°C, 42,000 rpm, SEDFIT 9.4c; monomer to dimer
[2] = substrate: CNCC(=O)O; test: radiometric acid-washed charcoal methyltransferase assay; format: biochemical, Methanohalophilus portucalensis; conditions: SMT activity, co-substrate AdoMet, TES pH 7.3, 37 °C (text b54 prints a different Km, equal to that of the native enzyme in the table)
[3] = substrate: CN(C)CC(=O)O; test: as above; format: biochemical, Methanohalophilus portucalensis; conditions: DMT activity, co-substrate AdoMet, TES pH 7.3, 37 °C (text b54 prints a different Km, equal to that of the native enzyme in the table)

B1: Methanohalophilus portucalensis glycine sarcosine methyltransferase (recombinant MpGSMT) (enzyme, UniProt F6KV61 1-263, looked up)
chain: MNQYGKQDFGDNPIEVRESDHYEEEYVLGFVDKWDELIDWESRAESEGDTIINILKERGVKKVLDVATGTGFNSVRLLQAGFDVVSADGSAEMLVKAFDNARDHGYLMRTVQADWRWMNKDIHDKFDAIVCLGNSFTHLFDEGDRRKALAEFYALLKHDGVLLLDQRNYDAILDDGYSSKHAHYYCGDTVSVYPEHVDEGLARFKYEFSDGSVYNLNMFPLRKDYTRQLLHEVGFQEINTLGDFKETYKEDEPDFFLHVAEKN
notes: glycine sarcosine methyltransferase (GSMT) of Methanohalophilus portucalensis strain FDF1T; complete Mpgsmt gene, 792 bp, 263 amino acids, GenBank HQ634197; The tag is inferred from the vector and the Ni Sepharose purification; source: E. coli BL21(DE3)RIL, pET28a, purified (Ni Sepharose 6 Fast Flow)
Km (purified protein; GMT activity, methyl acceptor glycine): 8260 µM
stoichiometry N [1]: 2

B2: MpSDMT (Methanohalophilus portucalensis FDF-1) (protein)
chain: MSENQKTAVDKAQEYYNSDDADNFYFTIWGGEDIHVGLYNSEDEPIFDASRRTIERMASKISNLDKDSKILDIGAGYGGAARYLAKKYGCQVVALNLSEVENERDRKMNEDQGLDHLITVVDGSFEEIPYPDFSFDVVWSQDAILHSGNREQVIKEVARVLKSGGDFVFTDPMQTDDCPEGVLQPILDRIHLETLGSPGFYRESAKKYGMKEIEFEKHASQLPTHYGRVLKETESQEDELSKVVSQNYINNMKQGLNHWVNGGNNGYLTWGIFHLRKK
notes: full length, 278 residues, 30,690 Da calculated (38 kD on SDS-PAGE)
Km (purified protein; SMT activity, methyl acceptor sarcosine): 500 µM
Km [2]: 660 µM
Km [3]: 660 µM

The remaining lines, values ahead:

activity at 1 M (MpGSMT; read-out: Relative activity (%) / Betaine / 1 M): 30%
Molecule: C[N+](C)(C)CC(=O)[O-] [betaine]

IC50 (MpGSMT; read-out: I50 AdoHcy): 70 µM
IC50 (MpSDMT): 150 µM
Molecule: Nc1ncnc2c1ncn2[C@@H]1O[C@H](CSCC[C@H](N)C(=O)O)[C@@H](O)[C@H]1O [AdoHcy]
